In patent publication US20230192824A1 (UNITED STATES OF AMERICA AS REPRESENTED BY THE SECRETARY OF …, published 2023):

T1: CfaE, tip adhesin of CFA/I fimbriae on wild type ETEC strain H10407 (Escherichia coli (ETEC) strain H10407, UniProt P25734 23-360)
T1 sequence: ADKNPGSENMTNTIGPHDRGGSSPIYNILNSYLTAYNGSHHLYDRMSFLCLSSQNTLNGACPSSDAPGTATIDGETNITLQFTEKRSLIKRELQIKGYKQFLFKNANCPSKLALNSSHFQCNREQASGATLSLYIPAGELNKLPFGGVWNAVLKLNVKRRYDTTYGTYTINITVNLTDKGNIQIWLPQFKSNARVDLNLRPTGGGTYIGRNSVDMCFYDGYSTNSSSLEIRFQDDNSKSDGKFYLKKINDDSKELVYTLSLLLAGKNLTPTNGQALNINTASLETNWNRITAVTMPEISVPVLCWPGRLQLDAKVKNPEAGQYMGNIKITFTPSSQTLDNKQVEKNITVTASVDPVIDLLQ

T2: CotD, tip adhesin of CS2 fimbriae on wild type ETEC strain C91f (Escherichia coli (ETEC) strain C91f)
T2 chain: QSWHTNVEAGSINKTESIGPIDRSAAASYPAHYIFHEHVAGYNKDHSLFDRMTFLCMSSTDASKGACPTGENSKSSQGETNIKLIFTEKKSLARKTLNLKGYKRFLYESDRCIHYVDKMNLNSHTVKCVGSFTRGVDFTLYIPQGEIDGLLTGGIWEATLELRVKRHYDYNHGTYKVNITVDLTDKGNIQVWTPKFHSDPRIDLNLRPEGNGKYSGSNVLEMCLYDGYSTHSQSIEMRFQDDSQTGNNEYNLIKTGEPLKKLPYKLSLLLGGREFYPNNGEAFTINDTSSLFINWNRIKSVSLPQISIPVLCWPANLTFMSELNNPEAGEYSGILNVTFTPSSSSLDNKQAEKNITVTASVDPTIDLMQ

T3: CsbD, tip adhesin of CS17 fimbriae on wild type ETEC strain WS6788A (Escherichia coli (ETEC) strain WS6788A)
T3 chain: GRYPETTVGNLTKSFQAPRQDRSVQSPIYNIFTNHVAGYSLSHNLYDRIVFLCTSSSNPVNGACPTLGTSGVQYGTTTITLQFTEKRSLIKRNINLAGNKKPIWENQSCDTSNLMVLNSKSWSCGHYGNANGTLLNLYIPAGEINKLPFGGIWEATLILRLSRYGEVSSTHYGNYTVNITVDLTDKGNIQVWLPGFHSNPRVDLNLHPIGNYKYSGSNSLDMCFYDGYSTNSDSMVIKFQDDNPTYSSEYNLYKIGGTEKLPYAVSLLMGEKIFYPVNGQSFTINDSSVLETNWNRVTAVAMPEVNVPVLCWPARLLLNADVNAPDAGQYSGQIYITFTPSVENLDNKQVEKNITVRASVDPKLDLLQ

T4: CsbD L85I/H144A, tip adhesin of CS17 fimbriae on wild type ETEC strain LSN02-013966/A (Escherichia coli (ETEC) strain …)
T4 chain: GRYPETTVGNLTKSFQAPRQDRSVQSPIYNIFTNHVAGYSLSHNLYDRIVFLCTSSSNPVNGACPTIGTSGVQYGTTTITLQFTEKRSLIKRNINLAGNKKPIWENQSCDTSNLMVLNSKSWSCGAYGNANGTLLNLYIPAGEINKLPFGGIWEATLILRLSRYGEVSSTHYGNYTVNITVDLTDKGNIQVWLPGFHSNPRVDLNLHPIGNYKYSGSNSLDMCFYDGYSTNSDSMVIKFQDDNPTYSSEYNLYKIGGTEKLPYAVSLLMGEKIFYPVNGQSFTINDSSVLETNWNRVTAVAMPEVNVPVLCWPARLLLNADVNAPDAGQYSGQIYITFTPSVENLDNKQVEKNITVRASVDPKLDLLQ

T5: dsc19CotD6xhis (C91f), donor strand complemented recombinant CS2 fimbrial tip adhesin CotD (Escherichia coli (ETEC) strain C91f)
T5 construct: also called dscCotD; CS2 adhesin
T5 chain: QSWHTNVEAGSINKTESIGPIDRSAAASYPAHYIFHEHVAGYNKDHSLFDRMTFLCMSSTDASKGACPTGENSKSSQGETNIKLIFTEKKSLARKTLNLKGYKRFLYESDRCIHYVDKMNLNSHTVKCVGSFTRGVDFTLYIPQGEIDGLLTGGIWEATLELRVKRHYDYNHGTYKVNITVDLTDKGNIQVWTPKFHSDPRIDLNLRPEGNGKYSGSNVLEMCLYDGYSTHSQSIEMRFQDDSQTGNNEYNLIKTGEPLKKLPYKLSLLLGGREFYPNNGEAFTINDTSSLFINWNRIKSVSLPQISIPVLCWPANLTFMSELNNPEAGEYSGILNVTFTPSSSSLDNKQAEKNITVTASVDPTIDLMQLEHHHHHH

T6: dsc19CsbD6xhis (WS6788A), donor strand complemented recombinant CS17 fimbrial tip adhesin CsbD (Escherichia coli (ETEC) strain WS6788A)
T6 construct: also called dscCsbD; primary CsbD
T6 chain: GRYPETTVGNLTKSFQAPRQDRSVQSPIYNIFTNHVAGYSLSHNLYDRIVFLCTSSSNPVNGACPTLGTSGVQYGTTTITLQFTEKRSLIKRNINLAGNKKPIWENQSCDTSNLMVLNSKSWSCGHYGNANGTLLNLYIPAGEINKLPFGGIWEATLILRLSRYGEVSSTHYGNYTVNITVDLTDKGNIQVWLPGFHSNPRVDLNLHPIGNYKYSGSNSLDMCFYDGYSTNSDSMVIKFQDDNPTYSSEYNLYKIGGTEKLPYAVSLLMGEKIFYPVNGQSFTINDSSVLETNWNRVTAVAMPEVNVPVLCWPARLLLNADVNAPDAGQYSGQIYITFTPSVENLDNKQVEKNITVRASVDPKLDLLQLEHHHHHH

T7: CsbD L85I, tip adhesin of CS17 fimbriae on wild type ETEC strain WS4240A (Escherichia coli (ETEC) strain WS4240A)
T7 chain: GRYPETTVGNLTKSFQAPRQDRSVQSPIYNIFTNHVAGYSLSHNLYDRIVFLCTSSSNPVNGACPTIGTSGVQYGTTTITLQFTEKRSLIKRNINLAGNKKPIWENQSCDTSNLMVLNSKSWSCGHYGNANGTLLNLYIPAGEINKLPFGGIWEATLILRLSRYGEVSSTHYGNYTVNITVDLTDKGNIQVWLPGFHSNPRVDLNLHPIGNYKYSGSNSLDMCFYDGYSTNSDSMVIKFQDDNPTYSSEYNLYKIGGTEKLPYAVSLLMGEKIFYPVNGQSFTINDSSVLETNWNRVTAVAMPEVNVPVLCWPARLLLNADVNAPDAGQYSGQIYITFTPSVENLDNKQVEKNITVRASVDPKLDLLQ

T8: dsc19CfaE6xhis (H10407), donor strand complemented recombinant CFA/I fimbrial tip adhesin CfaE (Escherichia coli (ETEC) strain H10407, UniProt P25734 23-360)
T8 construct: also called dscCfaE; primary CfaE
T8 sequence: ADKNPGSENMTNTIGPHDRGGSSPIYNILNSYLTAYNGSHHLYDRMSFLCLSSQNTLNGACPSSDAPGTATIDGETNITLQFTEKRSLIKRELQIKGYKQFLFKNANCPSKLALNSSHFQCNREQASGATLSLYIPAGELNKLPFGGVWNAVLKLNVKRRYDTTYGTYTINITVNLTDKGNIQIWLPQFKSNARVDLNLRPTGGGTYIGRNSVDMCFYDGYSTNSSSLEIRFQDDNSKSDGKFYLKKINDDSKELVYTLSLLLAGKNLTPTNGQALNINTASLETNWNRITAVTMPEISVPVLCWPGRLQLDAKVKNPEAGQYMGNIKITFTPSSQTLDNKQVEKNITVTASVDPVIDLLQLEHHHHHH


Key:
[1] = molecular target: T1, CfaE, tip adhesin of CFA/I fimbriae on …; assay: cell-based or functional assay
[2] = molecular target: T2, CotD, tip adhesin of CS2 fimbriae on …; assay: cell-based or functional assay
[3] = molecular target: T1, CfaE, tip adhesin of CFA/I fimbriae on …; assay: cell-based or functional assay; remark: listed apart in the source
[4] = molecular target: CsfD, tip adhesin of CS4 fimbriae on wild type ETEC strain BANG10-SP (Escherichia coli (ETEC) strain BANG10-SP); assay: cell-based or functional assay
[5] = molecular target: CsuD, tip adhesin of CS14 fimbriae on wild type ETEC strain WS3294A (Escherichia coli (ETEC) strain WS3294A); assay: cell-based or functional assay
[6] = molecular target: T3, CsbD, tip adhesin of CS17 fimbriae on …; assay: cell-based or functional assay
[7] = molecular target: CooD, tip adhesin of CS1 fimbriae on wild type ETEC strain WS1974A (Escherichia coli (ETEC) strain WS1974A); assay: cell-based or functional assay
[8] = molecular target: T4, CsbD L85I/H144A, tip adhesin of CS17 …; assay: cell-based or functional assay
[9] = molecular target: T5, dsc19CotD6xhis (C91f), donor strand …; assay: ELISA on coated adhesin
[10] = molecular target: T6, dsc19CsbD6xhis (WS6788A), donor strand …; assay: ELISA on coated adhesin
[11] = molecular target: T7, CsbD L85I, tip adhesin of CS17 fimbriae …; assay: cell-based or functional assay
[12] = molecular target: T8, dsc19CfaE6xhis (H10407), donor strand …; assay: ELISA on coated adhesin

Binder | fold reduction of ETEC H10407 binding to Caco-2 cells [1] [fold] | MIC in HAI [2] [µg/mL] | MIC in HAI [3] [µg/mL] | MIC in HAI [4] [µg/mL] | MIC in HAI [5] [µg/mL] | MIC in HAI [6] [µg/mL] | MIC in HAI [7] [µg/mL] | MIC in HAI [8] [µg/mL] | binding result [9] | binding result [10] | MIC in HAI [11] [µg/mL] | binding result [12]
anti-CfaE mouse mAb P8D10 (antibody, V domains shown, also called full length P8D10 mAb) VH: QIQLVQSGPELKKPGETVKISCKASGYTFTNYGMNWVKQAPGKGLKWMGWINTYTGQSTYADDFKGRFAFSLETSASTAHLQISNLKNEDAATYFCARMEYGNYENALDYWGQGTSVTVSS VL: DIVMTQSHKFMSTSIGDRVSITCKASQDVSTAVVWYQQKPGHSPKLLIYSASYRYTGVPDRFTGSGSGTDFTFTISSVQAEDLAVYYCLQHFSTPRTFGGGTNLEIK | > 4 | > 250 | 1.2 | > 250 | > 250 | > 250 | > 250 | > 250 | no binding (tested: mAb 2 ug/ml) | no binding (tested: mAb 2 ug/ml) |  | 
anti-CfaE mouse mAb P5C7 (antibody, V domains shown) VH: QIQLVQSGPELKKPGETVKISCKASGYTFTNYGMNWVKQAPGKGLKWMGWINTYTGEPTYTDDFKGRFAFSLETSASTAYLQINSLKTEDTATYFCARMEYGNYENAMDSWGQGTSVTVSS VL: DTVMTQSHKFMSTSVGDRVSITCKASQDVSTAVVWYQQKPGQSPKLLIYSASYRYTGVPDRFTGSGSGTDFTFTISSVQAEDLAVYYCLQHFNIPRTFGGGTKLEIK |  | > 250 | 1.2 | > 250 | > 250 | 16 | > 250 | > 250 | no binding (tested: mAb 2 ug/ml) |  | > 250 | 
anti-CotD mouse mAb P6B8 (antibody, V domains shown) VH: QVTLKESGPGILQPSQTLSLTCSFSGFSLSTSGMGVGWIRQPSGKGLEWLSHIWWDDEKRYNPALKSRLTISKDTSSNQVFLKIASVDTADTATYYCARIGDRSGHAGFVYWGQGTLVTVSA VL: DIKMTQSPSSMYASLGERVTITCKASQDINSYLSWFQQKPGKSPKTLIYRANRLVDGVPSRFSGSGSGQDYSLTISSLEYEDMGTYYCLQYDEFPYTFGGGTKLEIK |  | 3 | > 250 | > 250 | > 250 | > 250 | > 250 | > 250 |  | no binding (tested: mAb 2 ug/ml) |  | no binding (tested: mAb 2 ug/ml)
anti-CsbD mouse mAb P9A5 (antibody, V domains shown, Isotype n.d) VH: EVQLQQFGAEVVKPGASVKISCKASGYTFTDYNIDWVKQSHGESLEWIGDISPNSEGTTYNQKFKGQATLTIDKSSTTAYMELRSLTSEDSAVYYCARGSGIWNGLDYWGQGTSVTVSS VL: DIVMTQSHKFMSTSVGDRVSITCKASQDVSTAVAWYQQKPGQSPQLLIYSSSYRYVGVPDRFTGSGSGTDFTFTISSVQAEDLAVYYCHQHYSLPYTFGGGTKLEIK |  | > 250 | > 250 | > 250 | > 250 | 4 | 4 | 3.9 | no binding (tested: mAb 2 ug/ml) |  |  | no binding (tested: mAb 2 ug/ml)
anti-CsbD mouse mAb P7C2 (antibody, V domains shown) VH: EVKLEESGGGLVQPGGSMKLSCAASGFTFSDAWMDWVRQSPEKGLEWVGKIRSEINDHATYYAESVKGRFTISRDDSKSGVYLQMNNLRAEDTGIYYCARDGYYGAMDYWGQGTSVTVSS VL: DVQITQSPSYLAASPGETITINCRSNKSISRYLAWYQEKPGKTNKLLIYSGSTLQSGIPSRFSGSGSNTDFTLTISSLEPEDFAMYYCQQHNEYPYTFGSGTKLEIK |  | > 250 | > 250 | > 250 | > 250 | 1 | 4 | 1 | no binding (tested: mAb 2 ug/ml) |  | 2 | no binding (tested: mAb 2 ug/ml)
